According to the domain aggregation screens of Martell et al. (2025):

Assay: soluble fraction after stress (log2 fold change); higher = more stays soluble; pooled small domains, quantitative proteomics
Conditions: stress: 75 degC
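Further: 20 min heating vs room temperature control held 20 min.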

Sequence	soluble fraction (log2)
HMVDETDVPTFTDMTLEEAQNEAKQRNLKLEITESPSDKEKDTILEQDPEPGKTVASGSTVKLTVSNGEE	-0.157
HMIGPYAAAKLMTNKDFVKWLSGGVEKSVFNPNSFGQHIRRLVQISEVNPDIRDEINAVVQGLTQ	-0.445
HMTNVNSLIGKKAIVIQDIDNLKSTGQVKIGGEIWSAQSESNDIISKDTEVEIVKIDGVKLIVRLVPV	-0.153
HMLSTNDYNENKNKLIKDFEIKFIIKHLKLNKGNVAATARSINFHPVSLRQKIAKLGIDVDEVMAG	-2.59
HMIAASQVLRDARQRSRLTQAELGRRADVPQSVISAYESARREPSVDMLARLVAAAGFDLRIGLTP	-0.755
HMYHIYPVADNDTPKLSADRLEYSLSNALLTNKLLNIDEIKKIYNDVILDKDEDGTLELSFKS	0.127
HMTGDIGAEAAKAAALAHAGVTESQTAKMKVDRDWDDGRLEYDVEFDVGRTEYEYTIDGVTGAVLEYEQDI	0.0252
HMSKQVDVVIYILENTKAADNTYIGTYRKTADGAGVSLDTATKVMRKLQENNFIKKVQNGVYQISPLIMM	-1.42
HMVARPVLQIGSTGADVTAIQARLGVSQTGYFGVLTAAAVTNFQRSNGIAASGKVGATTWAKLMQSA	-2.37
HMVVNERIKKLRRSLDLTQQEFADRIGVKRNTIANYEIGRNEPIDSVLELIVREFGVSKQWLLDGTGEMF	-1.43
HMPRYSGMFAAWLHKALARMGKSMSDSARSAFTERVELDYSSANNELQKLSLLVGDRKVITEADVMRAIG	-0.86
HMESSNLESQLKKGIVPNLNGLSAKDALFLLENSGFNVKLYGMGSVKKQSLEAGKKYNKGDKITLIL	0.151
HMGVQKGKDNALAVQQWIAERDATGDFGEYERRGIINRSALFDELGIPRSSMGSNDQIRQMIEAADVRWF	-0.47
HMSKPVYILINKPKGFLASSTDKKVKKSVNDLINISNLNKIYPFDNMGRTSSGLLLLSNDLYFKKHFKDKI	0.451
HMINVVDEVIKHLETNIISGFWAPGQKIDSEATLSKQLNVSRASIHTAIQQLIATGVLESFQGKGTFVRS	-0.305
HMEREQNIEHGRAIVERELKRLGLSDVYTIADIATALRHDDVDQFLAKIGFGDIQSTQIGGAIAALQQR	0.0025
HMISFTDLEHIEKMIENVLYTKTPLNLPPTDAKIRKIEHQIARRYGLNSESFGDEPRRFVVVYPNEERE	-0.907
HMSVKYLQIYHAIREKILSNEYAINQQLPDEITLTKEFNSSRMTVKKALDLLVSEGLIFRKRGQGTFVLSR	-3.67
HMKEEVMVPNVVGKELSAALLEMQVKELYPKLQLKYSNFVDDKGTVLEQSPPAGSIVKAGRRINLVVSRGA	0.106
HMPRVLSSYTLTLRHQPTAEAVALVRTLLSPAGSVEVKEDGRTLVVRDELAALSRIVGALRSFDH	-0.851
HMFPELSEEEQIIVSLLQKQPDGLQINTLVVESNIPVNRMSGILFELEMKGIIRMAAGGVYRLL	-1.35
HMFLDKDTLNQLYRFGIALTGNEQDSQDVLHTAIERFLRNKPQQINQQAAYIRTIMRNYWYDELRKLKTQ	-3.06
HMNVYEVKFGDTLDEIIKTYLFDIPVKKSILRQAVILANPHAFRRNNPHWMYSDRQLKLPELQDIRRAIF	-0.317
HMKEVKRDQVIEAARKLFHQFGFKKVSMDEIAKEAGVTKKTIYMYFESKEELLKYFIQEEISN	-0.373
HMKEETEMVTIPDVTGKPLTEAANLLREAKLDYLAESTGTSVTKQMPLPGAEVMVNTTVLLYTG	0.157
HMSLIDYLNELMNEKNITVAQVAKNSGIGEYVYKIFNGERNAKRDTLVAISFGMHLNFEETQLLLRIA	-1.19

Sequence	soluble fraction (log2)
HMDVNSRIRQFLKKMKITVQTFESSIGKTNGYIAHTKSPTAGVLAEIAKVYPDLNLDWLITGEGEMLKN	-1.42
HMIDKIRYPELIMKLAHQQGGTIKRRDVEQLLHLQTKQAYRELSKLVDAGELVSVGRGPGAHYEVS	-0.316
HMTEWSIHEVAQRSGVTTRTLRHYDAIGILSPTRTGANGYRYYGPEALVRLQRILLLRDLGLALSDIAE	-3.82
HMNRTKQIYNELLFRLDQGVYPPESKFPSESQLADEFSVSKVTMNKIVSMLASSGRLSRGVRGAGTFVSSP	-1.33
HMPGSGELSRRLELAIRDRTAVRVTAAAAGQERSFTLLPVAITSGRLRATDEQAGVQRTLPLSAIVAVEA	-0.179
HMRNSFTVENTGERLDVFLTGQMPEFSRSHIQKLIASGQAWVNGVNRKGNFKLKPHDVVELEVPEPE	0.381
HMEAEQLEAIRSALQQLSDMNRTVFNLHVVDGYKHEEIAAMLNITTGTSKAHLHRAKKRLRELID	-1.04
HMTLGEHILQYRTARGWSQEDLANALEVSRQSVSKWETDASTPELDKIVRLSEIFQVSIDELVTGKA	-0.316
HMAGPRRRLLDAAIDRAAERGLGDLSLRALAEELGTSHRMLSHHFGSKDGLWLAIVEEVERRQ	-1.08
HMRDLAEAETILDALPTRLRKIVRWRHLEGLSQTEIAARLEISQMHVSRLYRRAISMIHASLADD	-0.289
HMSKQKRIKYFLSILNIKSIKQFRKKDLDYFYQKRFIEIQKSSKDKKLVSNQLIELNAAKEYLDEIDFEN	-3.78
HMEVAAAENYRSKLSSFAKDTISVWQTELLLGTISDDDKASLTEWMAYIKALQVVDTSDPESITWPTEPT	-1.14
HMHRFAVLDTVREVAAGGVAATLSIGVGRDADSFDALFKNASMALEMALSRGGDQAVVKDRMNFQFYGG	0.153
HMLLQTAVISTDIVNMRAEPTTNSSVIRKLTKGSDITINQEKDGWYKISDDQGNSGWIVTWAAKPT	-0.208
HMGSTATVIASRLNMRASASTTGALLTKIPNGATVTVLGTTGAWSHIRYGSYTGYVMSQYLRING	-3.1
HMSGDYRALYSSLPPERASSVVDALNVAGIPYRIQDSTGAIMVPAEQIYDARIRLAGQGLGK	0.104
HMDAISYTQFMEEAKQGRINKVEVQGRTLMVTPTDGKAYSLTSPGDLWMTTDLMKYGVNVYGAE	0.0525
HMGILPDDVKLNIKEAKKIGFPIMLKAIHGGGGRGMMIVQSEDEFADAMKITKTEAKNSFGNGDLYFEKFF	0.408
HMSGKWSILILHALEQGPKRFNVLHRELSGITQATLTKQLRQLEEDGIILRKAYPQIPPKVEYQLTEIG	-1.82
HMPAASDALAGELAQIARLDIAKLLAGDLSEADWSRITSATVQLSERHPDASDELTALVERIDTAYSARAT	0.0397
HMDYTPIEVKDLPQAIQDALTKNFSEYTVKSAAYQEDEDGVKIYQVTVVDEEGTEANIFFTEKGE	0.206
HMHMSKKLADSISALRKKNGLSQEQLAEKIGISRQTVSNWERGIATPDVETLNLISKLFDEDLSVMING	-0.073
HMAGWMPGGTNPAEPGRFAVLMDVDDSDAYKHMFLRWNGHAWEFERTRVLVKMEPSWWMRLPDDPEKP	-3.16
HMPMNISDIIKQAREELGMTQEDLAERLEVSRQAVSKWELGASVPSPENLRLLEELLGVELPAP	-0.198
HMNEMEFAQRLRQFRKAKNLTQQELADRLGVSNKSVSRWESGSYPDVGTLVALARALGVTVDELLDPKA	-0.00291
HMTTEIVRMKKDVKIGQEITAKDIEVVEVGAYNLPDEVIRSSEEVVGKYVSSELLKGEYVLPSKISDTP	0.22

Sequence	soluble fraction (log2)
HMLDSDARRRGLIEYLSLNGYATMRQLAGEFDVSINTIQRDITYLARYYPLETAYGRYGGGVYFEQNWQ	-1.44
HMVTIEEMMDRLLTRVQRAVNMSFSEFSGEAKEKVEVIVSFLALLELVKQGAVDVLQHENFSDIRIENT	-0.661
HMSEKLTLEAANEAAGMRIDKWLAMQLPELSRSRIEALISGGGVVVNGKNPSKSLKLKGGEQIELEIPE	-0.0607
HMQKIYTIARGDTLSHIVAGTLKQQGIAYTTGELYRLVNVVAQYNDILNPNRIYTGHQLDLTPLYSED	-0.15
HMTPQVALNDTETAIYEKMKQEKQMLLGELRAQFDISNKLWDTSLKTLTKNQLLAVSKEDDLLFVKL	-0.195
HMNKMIIELGEKLKALRTENHLRQDQVARLVNVEKSSISMYETGMRQPSYTTLVRLADVFNVTTDYLLGRK	-2.37
HMNEPITIALREAEEAANKILNEGVHSVELSPQNGYVRRLQHELIARYGLTSASRGSDPSRRVSVGAN	-0.295
HMNATPDMERYWASSAAEGRALEPLYAVSRGDGGEPLWWSPSRAQAERMAREEGGPLTVDRIDPP	0.113
HMKSDVVFDITDGTVKAMLKFNRSDVTILNNDGKNYYLFTANGEFTFKYQDGSGEYYEKTVYVDWLEDE	-2.25
HMKSLVDLEISIVKKDMNYFVLPKINGEPLLMERISASEYKDFQLGKLSKEDIFQKHYPDYSEENIKNGRG	-0.671
HMGLSIPLMGAKASDIEISTLNDEVQRKLKIIVKEQGHENLQRVVPLPSEAREIQAHFINGRLHLR	0.0158
HMKKATYDVMVREALVSFKKKGATLQSIKKKIKADYAIEANATAVKSAIQKGMEAGSIRKSYDLYFFMD	-2.8
HMVDLAPTEEIIKNLPNNSRSLLIPTLQKIQNAYRYLPSPAMELLSEFLNVTRAEIYGVISFYPSLL	0.173
HMSKEEAIQAMKEGKKVTHRFFSSDEWMTIENGFLLLEDGVRISLEDFFNFRSDSLWDNGYELYNPH	-0.628
HMSESAGKALDILFYLARVEDEVSLARLSKETGMNKATALRYLAVLESWGVVEKRPSGWSLGLSLFELGSK	-2.05
HMDTIASESVRNRIEELISNENPKKPLSDQALVKMLQEFDIKIARRTVAKYREMLKIPPSSKRKQV	-0.265
HMDRDMGSMTDFENVRDAYLTGKVWNVGDLIEANGITGIIIRKGTNYVSYNDGDGKVHKAWLHDITL	-0.802
HMATKEQIKRIYGLGAGLGIVGKDKDDMLHELIFSITGKDSVKQLDDSEFKAVQAELINRMKLA	0.0958
HMKTAWDELNEVIEAYRGQESALIEVLHKAQEIMGYLPRDVQEAIAEGLHVPLNKVYGVVSFYHHFSV	0.449
HMPVQSNRDALLDIGQTLQVQAWDAQGSARVSYRGSDWTAEFRGPGAAAPGLHRIIAVQGNRLIVEPA	0.342
HMGYKDIDKLSGVDLAIYRFIVEHDEQIPYMRVRELARGAHVSNSSVMRFIRKIGYDSFPEFKVSLRS	-0.0854
HMQERQREGFVQQLRGKYSGQVVMRLFPELQGKALGEFMRKFEAQWEDHEAVLAAMEAHEIESRLKVFK	-1.57
HMGKPSSEELEALGRRTLEENVDVVEEILGGRDPKGKKIKYLEGLMMRALRGQETPEAVRRTLEELIFK	-0.132
HMSGDKKLQMNLILEFAQQNESFRTKDIEELLQIRSSRARKLISDLVTEGRLEALGENRNRRYQLI	-1.05
